Biological target: triazole-linked ^triazole42Ub^me-ADPr (5), biotinylated (UniProt P0CG48)
Assay: pull-down

mCherry-DupA-WT (from UniProt Q5ZTK7 1-301) (enzyme)
fold enrichment against biotinylated wild-type Ub or beads: > 10 fold
